± gives the uncertainty stated by the source.
Tested on: HEK293T
Experiment: plasma membrane surface immunostaining intensity (anti-HA, deep receptor scanning) (arbitrary fluorescence units); higher = higher plasma membrane expression

| Sequence | plasma membrane surface immunostaining intensity (GPCR class: A (Olfactory)) | plasma membrane surface immunostaining intensity (GPCR class: A) | other results |
| --- | --- | --- | --- |
| MAWENQTFNSDFILLGIFNHSPPHTFLFFLVLGIFLVAFMGNSVMVLLIYLDTQLHTPMYFLLSQLSLMDLMLICTTVPKMAFNYLSGSKSISMAGCVTQIFFYISLSGSECFLLAVMAYDRYIAICHPLRYTNLMNPKICGLMATFSWILGSTDGIIDAVATFSFSFCGSREIAHFFCEFPSLLILSCNDTSIFEEVIFICCIVMLVFPVAIIIASYARVILAVIHMGSGEGRCKAFTTCSSHLMVVGMYYGAALFMYIRPTSDHSPTQDKMVSVFYTILTPMLNPLIYSLRNKEVTRAFMKILGKGKSESELPHKLYVLLFAKFFFLISIFFYDVKILALIMYIA [OR2M2] | 134 ± 22 |  |  |
| MAWENQTFNSDFILLGIFNHSPTHTFLFFLVLAIFSVAFMGNSVMVLLIYLDTQLHTPMYFLLSQLFLMDLMLICSTVPKMAFNYLSGSKSISMAGCATQIFFYVSLLGSECFLLAVMSYDRYIAICHPLRYTNLMRPKICGLMTAFSWILGSMDAIIDAVATFSFSYCGSREIAHFFCDFPSLLILSCNDTSIFEKVLFICCIVMIVFPVAIIIASYARVILAVIHMGSGEGRRKAFTTCSSHLMVVGMYYGAGLFMYIRPTSDRSPMQDKLVSVFYTILTPMLNPLIYSLRNKEVTRALRKVLGKGKCGE [OR2M5] | 111 ± 20 |  |  |
| MAWENQTFNSDFLLLGIFNHSPTHTFLFFLVLAIFSVAFMGNSIMVLLIYLDTQLHTPMYFLLSQLSLMDLMLICTTVPKMAFNYLSGSKSISMAGCATQIFFYISLLGSECFLLAVMSYDRYTAICHPLRYTNLMRPKICGLMTAFSWILGSTDGIIDAVATFSFSYCGSREIAHFCCDFPSLLILSCNDTSIFEEVIFICCIVMLVFPVAIIITSYARVILAVIHMGSGEGRRKAFTTCSSHLMVVGMYYGAGLFMCIQPTSHHSPMQDKMVSVFYTIVTPMLNPLIYSLRNKEVTRALMKILGKGKSGD [OR2M7] | 157 ± 44 |  |  |
| MAWRGAGPSVPGAPGGVGLSLGLLLQLLLLLGPARGFGDEEERRCDPIRISMCQNLGYNVTKMPNLVGHELQTDAELQLTTFTPLIQYGCSSQLQFFLCSVYVPMCTEKINIPIGPCGGMCLSVKRRCEPVLKEFGFAWPESLNCSKFPPQNDHNHMCMEGPGDEEVPLPHKTPIQPGEECHSVGTNSDQYIWVKRSLNCVLKCGYDAGLYSRSAKEFTDIWMAVWASLCFISTAFTVLTFLIDSSRFSYPERPIIFLSMCYNIYSIAYIVRLTVGRERISCDFEEAAEPVLIQEGLKNTGCAIIFLLMYFFGMASSIWWVILTLTWFLAAGLKWGHEAIEMHSSYFHIAAWAIPAVKTIVILIMRLVDADELTGLCYVGNQNLDALTGFVVAPLFTYLVIGTLFIAAGLVALFKIRSNLQKDGTKTDKLERLMVKIGVFSVLYTVPATCVIACYFYEISNWALFRYSADDSNMAVEMLKIFMSLLVGITSGMWIWSAKTLHTWQKCSNRLVNSGKVKREKRGNGWVKPGKGSETVV [FZD4] |  |  | plasma membrane surface immunostaining intensity (GPCR class: F): 5830 ± 270 |
| MCPMLLKNGYNGNATPVTTTAPWASLGLSAKTCNNVSFEESRIVLVVVYSAVCTLGVPANCLTAWLALLQVLQGNVLAVYLLCLALCELLYTGTLPLWVIYIRNQHRWTLGLLACKVTAYIFFCNIYVSILFLCCISCDRFVAVVYALESRGRRRRRTAILISACIFILVGIVHYPVFQTEDKETCFDMLQMDSRIAGYYYARFTVGFAIPLSIIAFTNHRIFRSIKQSMGLSAAQKAKVKHSAIAVVVIFLVCFAPYHLVLLVKAAAFSYYRGDRNAMCGLEERLYTASVVFLCLSTVNGVADPIIYVLATDHSRQEVSRIHKGWKEWSMKTDVTRLTHSRDTEELQSPVALADHYTFSRPVHPPGSPCPAKRLIEESC [GPR132] |  | 372 ± 74 |  |
| MCSGNQTSQNQTASTDFTLTGLFAESKHAALLYTVTFLLFLMALTGNALLILLIHSEPRLHTPMYFFISQLALMDLMYLCVTVPKMLVGQVTGDDTISPSGCGIQMFFYLTLAGAEVFLLAAMAYDRYAAVCRPLHYPLLMNQRVCQLLVSACWVLGMVDGLLLTPITMSFPFCQSRKILSFFCETPALLKLSCSDVSLYKTLMYLCCILMLLAPIMVISSSYTLILHLIHRMNSAAGHRKALATCSSHMIIVLLLFGASFYTYMLPSSYHTAEQDMMVSAFYTIFTPVLNPLIYSLRNKDVTRALRSMMQSRMNQEK [OR2T3] | 450 ± 200 |  |  |
| MCWTMPSPFTGSSTRNMESGNQSTVTEFIFTGFPQLQDGSLLYFFPLLFIYTFIIIDNLLIFSAVRLDTHLHNPMYNFISIFSFLEIWYTTATIPKMLSNLISEKKAISMTGCILQMYFFHSLENSEGILLTTMAIDRYVAICNPLRYQMIMTPRLCAQLSAGSCLFGFLILLPEIVMISTLPFCGPNQIHQIFCDLVPVLSLACTDTSMILIEDVIHAVTIIITFLIIALSYVRIVTVILRIPSSEGRQKAFSTCAGHLMVFPIFFGSVSLMYLRFSDTYPPVLDTAIALMFTVLAPFFNPIIYSLRNKDMNNAIKKLFCLQKVLNKPGG [OR6K3] | 197 ± 66 |  |  |
| MDAALLHSLLEANCSLALAEELLLDGWGPPLDPEGPYSYCNTTLDQIGTCWPRSAAGALVERPCPEYFNGVKYNTTRNAYRECLENGTWASKINYSQCEPILDDKQRKYDLHYRIALVVNYLGHCVSVAALVAAFLLFLALRSIRCLRNVIHWNLITTFILRNVMWFLLQLVDHEVHESNEVWCRCITTIFNYFVVTNFFWMFVEGCYLHTAIVMTYSTERLRKCLFLFIGWCIPFPIIVAWAIGKLYYENEQCWFGKEPGDLVDYIYQGPIILVLLINFVFLFNIVRILMTKLRASTTSETIQYRKAVKATLVLLPLLGITYMLFFVNPGEDDLSQIMFIYFNSFLQSFQGFFVSVFYCFFNGEVRSAVRKRWHRWQDHHSLRVPMARAMSIPTSPTRISFHSIKQTAAV [CRHR2] |  |  | plasma membrane surface immunostaining intensity (GPCR class: B): 2380 ± 560 |
| MDFLNSSDQNLTSEELLNRMPSKILVSLTLSGLALMTTTINSLVIAAIIVTRKLHHPANYLICSLAVTDFLVAVLVMPFSIVYIVRESWIMGQVVCDIWLSVDITCCTCSILHLSAIALDRYRAITDAVEYARKRTPKHAGIMITIVWIISVFISMPPLFWRHQGTSRDDECIIKHDHIVSTIYSTFGAFYIPLALILILYYKIYRAAKTLYHKRQASRIAKEEVNGQVLLESGEKSTKSVSTSYVLEKSLSDPSTDFDKIHSTVRSLRSEFKHEKSWRRQKISGTRERKAATTLGLILGAFVICWLPFFVKELVVNVCDKCKISEEMSNFLAWLGYLNSLINPLIYTIFNEDFKKAFQKLVRCRC [HTR1F] |  | 2040 ± 280 |  |
| MDGSNVTSFVVEEPTNISTGRNASVGNAHRQIPIVHWVIMSISPVGFVENGILLWFLCFRMRRNPFTVYITHLSIADISLLFCIFILSIDYALDYELSSGHYYTIVTLSVTFLFGYNTGLYLLTAISVERCLSVLYPIWYRCHRPKYQSALVCALLWALSCLVTTMEYVMCIDREEESHSRNDCRAVIIFIAILSFLVFTPLMLVSSTILVVKIRKNTWASHSSKLYIVIMVTIIIFLIFAMPMRLLYLLYYEYWSTFGNLHHISLLFSTINSSANPFIYFFVGSSKKKRFKESLKVVLTRAFKDEMQPRRQKDNCNTVTVETVV [MAS1] |  | 782 ± 65 |  |
| MDGTNGSTQTHFILLGFSDRPHLERILFVVILIAYLLTLVGNTTIILVSRLDPHLHTPMYFFLAHLSFLDLSFTTSSIPQLLYNLNGCDKTISYMGCAIQLFLFLGLGGVECLLLAVMAYDRCVAICKPLHYMVIMNPRLCRGLVSVTWGCGVANSLAMSPVTLRLPRCGHHEVDHFLREMPALIRMACVSTVAIEGTVFVLAVGVVLSPLVFILLSYSYIVRAVLQIRSASGRQKAFGTCGSHLTVVSLFYGNIIYMYMQPGASSSQDQGMFLMLFYNIVTPLLNPLIYTLRNREVKGALGRLLLGKRELGKE [OR2W3] | 129 ± 7.6 |  |  |
| MDHCGALFLCLCLLTLQNATTETWEELLSYMENMQVSRGRSSVFSSRQLHQLEQMLLNTSFPGYNLTLQTPTIQSLAFKLSCDFSGLSLTSATLKRVPQAGGQHARGQHAMQFPAELTRDACKTRPRELRLICIYFSNTHFFKDENNSSLLNNYVLGAQLSHGHVNNLRDPVNISFWHNQSLEGYTLTCVFWKEGARKQPWGGWSPEGCRTEQPSHSQVLCRCNHLTYFAVLMQLSPALVPAELLAPLTYISLVGCSISIVASLITVLLHFHFRKQSDSLTRIHMNLHASVLLLNIAFLLSPAFAMSPVPGSACTALAAALHYALLSCLTWMAIEGFNLYLLLGRVYNIYIRRYVFKLGVLGWGAPALLVLLSLSVKSSVYGPCTIPVFDSWENGTGFQNMSICWVRSPVVHSVLVMGYGGLTSLFNLVVLAWALWTLRRLRERADAPSVRACHDTVTVLGLTVLLGTTWALAFFSFGVFLLPQLFLFTILNSLYGFFLFLWFCSQRCRSEAEAKAQIEAFSSSQTTQ [ADGRG5] |  |  | plasma membrane surface immunostaining intensity (GPCR class: B): 512 ± 20 |
| MDHQDPYSVQATAAIAAAITFLILFTIFGNALVILAVLTSRSLRAPQNLFLVSLAAADILVATLIIPFSLANELLGYWYFRRTWCEVYLALDVLFCTSSIVHLCAISLDRYWAVSRALEYNSKRTPRRIKCIILTVWLIAAVISLPPLIYKGDQGPQPRGRPQCKLNQEAWYILASSIGSFFAPCLIMILVYLRIYLIAKRSNRRGPRAKGGPGQGESKQPRPDHGGALASAKLPALASVASAREVNGHSKSTGEKEEGETPEDTGTRALPPSWAALPNSGQGQKEGVCGASPEDEAEEEEEEEEEEEECEPQAVPVSPASACSPPLQQPQGSRVLATLRGQVLLGRGVGAIGGQWWRRRAQLTREKRFTFVLAVVIGVFVLCWFPFFFSYSLGAICPKHCKVPHGLFQFFFWIGYCNSSLNPVIYTIFNQDFRRAFRRILCRPWTQTAW [ADRA2B] |  | 6390 ± 13 |  |
| MDISEGNKTLVTEFVLTGLTDRPWLHVLFFVVFLVVYLITMVGNLGLIVLIWNDPHLHMPMYLFLGGLAFSDACTSTSITPRMLVNFLDKTAMISLAECITQFYFFASSATTECFLLVMMAYDRYVAICNPLLYPVMMSNKLSAQLLSISYVIGFLHPLVHVSLLLRLTFCRFNIIHYFYCEILQLFKISCNGPSINALMIFIFGAFIQIPTLMTIIISYTRVLFDILKKKSEKGRSKAFSTCGAHLLSVSLYYGTLIFMYVRPASGLAEDQDKVYSLFYTIIIPLLNPFIYSLRNKKVMHALRRVIRK [OR5AC2] | 166 ± 48 |  |  |
| MDKINQTFVREFILLGLSGYPKLEIIFFALILVMYVVILIGNGVLIIASILDSRLHMPMYFFLGNLSFLDICYTTSSIPSTLVSLISKKRNISFSGCAVQMFFGFAMGSTECFLLGMMAFDRYVAICNPLRYPIIMNKVVYVLLTSVSWLSGGINSTVQTSLAMRWPFCGNNIINHFLCEILAVLKLACSDISVNIVTLAVSNIAFLVLPLLVIFFSYMFILYTILRTNSATGRHKAFSTCSAHLTVVIIFYGTIFFMYAKPKSQDLLGKDNLQATEGLVSMFYGVVTPMLNPIIYSLRNKDVKAAIKYLLSRKAINQ [OR13C4] | 311 ± 110 |  |  |
| MDLELDEYYNKTLATENNTAATRNSDFPVWDDYKSSVDDLQYFLIGLYTFVSLLGFMGNLLILMALMKKRNQKTTVNFLIGNLAFSDILVVLFCSPFTLTSVLLDQWMFGKVMCHIMPFLQCVSVLVSTLILISIAIVRYHMIKHPISNNLTANHGYFLIATVWTLGFAICSPLPVFHSLVELQETFGSALLSSRYLCVESWPSDSYRIAFTISLLLVQYILPLVCLTVSHTSVCRSISCGLSNKENRLEENEMINLTLHPSKKSGPQVKLSGSHKWSYSFIKKHRRRYSKKTACVLPAPERPSQENHSRILPENFGSVRSQLSSSSKFIPGVPTCFEIKPEENSDVHELRVKRSVTRIKKRSRSVFYRLTILILVFAVSWMPLHLFHVVTDFNDNLISNRHFKLVYCICHLLGMMSCCLNPILYGFLNNGIKADLVSLIHCLHM [NPY5R] |  | 269 ± 26 |  |
